Patent US20210261648A1 (published 2021)
Numbering of substitutions follows the chain as printed. In names and notes the source's numbering stands. One block for each binder: values may come before it.

What was measured:
[1] = target: T1, FcγRIIIa type V extracellular domain with C-terminal His tag (human, UniProt P08637 17-208); test: SPR (Biacore)
T1 construct: extracellular domain; Allotype V158 (type V); also called FcgRIIIaV; FcγRIIIaV
T1 sequence (P08637 17-208 F176V): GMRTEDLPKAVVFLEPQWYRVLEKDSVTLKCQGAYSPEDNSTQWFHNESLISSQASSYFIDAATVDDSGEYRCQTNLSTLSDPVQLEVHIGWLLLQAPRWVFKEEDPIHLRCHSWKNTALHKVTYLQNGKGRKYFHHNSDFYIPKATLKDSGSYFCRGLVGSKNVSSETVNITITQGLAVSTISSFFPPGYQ

[2] = target: T2, FcγRIa extracellular domain with C-terminal His tag (human, UniProt P12314 16-292); test: SPR (Biacore)
T2 construct: Whole entry named; also called FcgRIa; CD64A
T2 sequence (P12314 16-292): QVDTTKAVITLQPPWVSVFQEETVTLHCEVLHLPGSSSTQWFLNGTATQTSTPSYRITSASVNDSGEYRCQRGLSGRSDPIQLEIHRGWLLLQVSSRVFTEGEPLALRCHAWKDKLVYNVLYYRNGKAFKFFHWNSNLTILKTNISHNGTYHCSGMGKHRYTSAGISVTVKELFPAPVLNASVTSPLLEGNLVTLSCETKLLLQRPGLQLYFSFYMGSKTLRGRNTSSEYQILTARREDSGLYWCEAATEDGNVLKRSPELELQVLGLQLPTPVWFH

[3] = target: T3, FcγRIIb extracellular domain with C-terminal His tag (human, UniProt P31994 43-217); test: SPR (Biacore)
T3 construct: extracellular domain; For crystals it was expressed with kifunensine and trimmed with Endo F1; also called FcgRIIb; FcγRIIb extracellular region
T3 sequence (looked up): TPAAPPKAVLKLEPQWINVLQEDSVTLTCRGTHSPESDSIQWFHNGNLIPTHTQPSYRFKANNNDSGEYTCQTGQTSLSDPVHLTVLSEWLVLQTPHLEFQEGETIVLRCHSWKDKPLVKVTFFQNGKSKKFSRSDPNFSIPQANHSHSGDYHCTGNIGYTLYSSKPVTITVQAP

[4] = target: T4, FcγRIIa type H extracellular domain with C-terminal His tag (human, UniProt P12318 34-217); test: SPR (Biacore)
T4 construct: extracellular domain; also called FcgRIIaH; FcγRIIa H
T4 sequence (looked up): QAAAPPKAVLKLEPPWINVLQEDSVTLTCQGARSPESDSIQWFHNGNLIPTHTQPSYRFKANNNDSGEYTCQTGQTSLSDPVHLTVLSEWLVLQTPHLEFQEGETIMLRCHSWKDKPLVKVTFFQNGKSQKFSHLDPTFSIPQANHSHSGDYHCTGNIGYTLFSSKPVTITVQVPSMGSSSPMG

[5] = target: T3, FcγRIIb extracellular domain with …; test: SPR (Biacore), relative amount of binding
[6] = target: T5, FcγRIa extracellular domain with C-terminal His tag (human, UniProt P12314 16-292); test: SPR, captured antibody, FcgR analyte
T5 construct: also called FcgRIa
T5 sequence (P12314 16-292): as the sequence (P12314 16-292) above
Procedure: (§1) Relative binding activities were calculated for the results of analyzing interactions with the respective FcγRs according to the following method.

[7] = target: T6, FcγRIIa type H extracellular domain with C-terminal His tag (human, UniProt P12318 34-217); test: SPR, captured antibody, FcgR analyte
T6 construct: extracellular domain; also called FcgRIIaH; FcγRIIa H
T6 sequence (looked up): T4 sequence (looked up)
Procedure: as §1

[8] = target: T7, FcγRIIIa type V extracellular domain with C-terminal His tag (human, UniProt P08637 17-208); test: SPR, captured antibody, FcgR analyte
T7 construct: extracellular domain; also called FcgRIIIaV; FcγRIIIaV
T7 sequence (P08637 17-208 F176V): as the sequence (P08637 17-208 F176V) above
Procedure: as §1

[9] = target: T8, FcγRIIb extracellular domain with C-terminal His tag (human, UniProt P31994 43-217); test: SPR, captured antibody, FcgR analyte
T8 construct: extracellular domain; also called FcgRIIb
T8 sequence (looked up): T3 sequence (looked up)
Procedure: as §1

[10] = target: T9, FcγRIIa type R extracellular domain with C-terminal His tag (human, UniProt P12318 34-217); test: SPR (Biacore), antibody captured, FcγR as analyte
T9 chain: T4 sequence (looked up) with H134R

[11] = target: T10, FcγRIa extracellular domain with C-terminal His tag (human, UniProt P12314 16-292); test: SPR (Biacore), antibody captured, FcγR as analyte
T10 construct: also called FcgRIa; not shown: His tag attached to the C terminus
T10 sequence (P12314 16-292): as the sequence (P12314 16-292) above

[12] = target: T11, FcγRIIb extracellular domain with C-terminal His tag (human, UniProt P31994 43-217); test: SPR (Biacore), antibody captured, FcγR as analyte
T11 construct: extracellular domain; For crystallography it was expressed with kifunensine and trimmed with Endo F1; also called FcgRIIb; FcγRIIb extracellular region; not shown: His tag attached to the C terminus
T11 sequence (looked up): T3 sequence (looked up)

[13] = target: T9, FcγRIIa type R extracellular domain …; test: SPR; KD of IL6R-B3/IL6R-L divided by KD of the variant
[14] = target: T11, FcγRIIb extracellular domain with …; test: as above
[15] = target: T11, FcγRIIb extracellular domain with …; test: SPR; KD for FcγRIIaH divided by KD for FcγRIIb
[16] = target: T11, FcγRIIb extracellular domain with …; test: SPR; KD for FcγRIIaR divided by KD for FcγRIIb

binding result [1]: binds
binding result [2]: binds
fold increase of binding against IL6R-BP230/IL6R-L [3]: 1.1 fold
binding result [4]: binds
B1: IL6R-BP478/IL6R-L (antibody, human IgG4 S228P, kappa)
heavy: QVQLQESGPGLVKPSETLSLTCAVSGHSISHDHAWSWVRQPPGEGLEWIGFISYSGITNYNPSLQGRVTISRDNSKNTLYLQMNSLRAEDTAVYYCARSLARTTAMDYWGEGTLVTVSSASTKGPSVFPLAPCSRSTSESTAALGCLVKDYFPEPVTVSWNSGALTSGVHTFPAVLQSSGLYSLSSVVTVPSSSLGTKTYTCNVDHKPSNTKVDKRVESKYGPPCPPCPAPDLLGDDSVFLFPPKPKDTLMISRTPEVTCVVVDVSDEDGEVKFNWYVDGVEVHNAKTKPREEQDNSTYRVVSVLTVLHQDWLNGKEYKCKVSNKALPRPIEKTISKAKGQPREPQVYTLPPSRDELTKNQVSLTCLVKGFYPSDIAVEWESNGQPENNYKTTPPVLDSDGSFFLYSKLTVDKSRWQQGNVFSCSVMHEALHNHYTQESLSLSP
light: not shown

binding result [5]: binds
B2: B3 variant of GpH7-B3/GpL16-k0 with Pro at position 238 (EU numbering) substituted with Asp (antibody, human IgG1, kappa)
heavy: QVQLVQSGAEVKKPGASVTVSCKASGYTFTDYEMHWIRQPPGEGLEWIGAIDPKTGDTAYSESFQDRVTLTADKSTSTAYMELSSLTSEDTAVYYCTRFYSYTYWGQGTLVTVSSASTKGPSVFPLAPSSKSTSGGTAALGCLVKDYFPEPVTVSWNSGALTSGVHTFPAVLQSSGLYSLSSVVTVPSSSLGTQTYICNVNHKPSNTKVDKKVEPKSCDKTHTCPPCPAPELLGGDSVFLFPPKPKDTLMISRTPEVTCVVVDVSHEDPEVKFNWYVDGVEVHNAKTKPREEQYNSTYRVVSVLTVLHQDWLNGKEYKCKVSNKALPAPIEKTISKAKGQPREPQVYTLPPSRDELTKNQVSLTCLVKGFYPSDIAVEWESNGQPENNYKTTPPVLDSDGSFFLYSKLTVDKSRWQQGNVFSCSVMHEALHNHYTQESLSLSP
light: DIVMTQSPLSLPVTPGEPASISCQASESLVHSNRNTYLHWYLQKPGQSPQLLIYKVSNRFSGVPDRFSGSGSGTDFTLKISRVEAEDVGVYYCSQNTHVPPTFGQGTKVEIERTVAAPSVFIFPPSDEQLKSGTASVVCLLNNFYPREAKVQWKVDNALQSGNSQESVTEQDSKDSTYSLSSTLTLSKADYEKHKVYACEVTHQGLSSPVTKSFNRGEC
notes: also called mutation A

Kd [10]: 4200 nM
Kd [11]: 5.6 nM
Kd [12]: 180 nM
KD(IIaR) of the parent polypeptide/KD(IIaR) of the altered polypeptide [13]: 0.3
KD(IIb) of the parent polypeptide/KD(IIb) of the altered polypeptide [14]: 16.8
KD(IIaH)/KD(IIb) [15]: 168
KD(IIaR)/KD(IIb) [16]: 22.8
B5: IL6R-BP560/IL6R-L (antibody, human IgG1, kappa)
heavy: QVQLQESGPGLVKPSETLSLTCAVSGHSISHDHAWSWVRQPPGEGLEWIGFISYSGITNYNPSLQGRVTISRDNSKNTLYLQMNSLRAEDTAVYYCARSLARTTAMDYWGEGTLVTVSSASTKGPSVFPLAPSSKSTSGGTAALGCLVKDYFPEPVTVSWNSGALTSGVHTFPAVLQSSGLYSLSSVVTVPSSSLGTQTYICNVNHKPSNTKVDKKVEPKSCDKTHTCPPCPAPELLGGDSVFLFPPKPKDTLMISRTPEVTCVVVDVGEEDGEVKFNWYVDGVEVHNAKTKPREEQDNSTYRVVSVLTVLHQDWLNGKEYKCKVSNKALPRPIEKTISKAKGQPREPQVYTLPPSRDELTKNQVSLTCLVKGFYPSDIAVEWESNGQPENNYKTTPPVLDSDGSFFLYSKLTVDKSRWQQGNVFSCSVMHEALHNHYTQESLSLSP
light: not shown
notes: Anti-human IL-6R IgG1; alterations introduced into IL6R-B3 (G1d with K439E)

Kd [10]: 510 nM
Kd [11]: 9.4 nM
Kd [12]: 18 nM
B8: IL6R-BP561/IL6R-L (antibody, human IgG1, kappa)
heavy: B5 heavy with E235D, G239D, G269S, E270D, E274D
light: not shown
notes: as for B5

Further lines, the binder ahead of its results:

B3: IL6R-2B253/IL6R-L (antibody, human IgG1, kappa)
heavy: B5 heavy with E235D, G269S, E270H, G273P, D298Y, V325M, R332A
light: not shown
relative binding activity [6]: 155 relative (IL6R-BF648/IL6R-L = 100)
relative binding activity [7]: 207 relative (IL6R-BF648/IL6R-L = 100)
relative binding activity [8]: 126 relative (IL6R-BF648/IL6R-L = 100)
relative binding activity [9]: 156 relative (IL6R-BF648/IL6R-L = 100)

B4: IL6R-BP206/IL6R-L (antibody, human IgG1, kappa)
heavy: B5 heavy with E235D, G269S, E270H, D298Y
light: not shown
relative binding activity [6]: 101 relative (IL6R-BF648/IL6R-L = 100)
relative binding activity [8]: 92 relative (IL6R-BF648/IL6R-L = 100)
relative binding activity [9]: 168 relative (IL6R-BF648/IL6R-L = 100)

B6: IL6R-BP564/IL6R-L (antibody, human IgG1, kappa)
heavy: B5 heavy with G239D, G269S, E274D
light: not shown
notes: as for B5
Kd [10]: 580 nM
Kd [11]: 31 nM
Kd [12]: 22 nM
KD(IIaR) of the parent polypeptide/KD(IIaR) of the altered polypeptide [13]: 1.9
KD(IIb) of the parent polypeptide/KD(IIb) of the altered polypeptide [14]: 141
KD(IIaH)/KD(IIb) [15]: 454
KD(IIaR)/KD(IIb) [16]: 26.2

B7: IL6R-BP203/IL6R-L (antibody, human IgG1, kappa)
heavy: B5 heavy with G239D, G269S, E270H, D298Y
light: not shown
relative binding activity [6]: 35 relative (IL6R-BF648/IL6R-L = 100)
relative binding activity [7]: 255 relative (IL6R-BF648/IL6R-L = 100)
relative binding activity [8]: 88 relative (IL6R-BF648/IL6R-L = 100)
relative binding activity [9]: 185 relative (IL6R-BF648/IL6R-L = 100)

B9: IL6R-BP209/IL6R-L (antibody, human IgG1, kappa)
heavy: B5 heavy with G239D, G269S, E270D, D298Y, K328A
light: not shown
relative binding activity [6]: 68 relative (IL6R-BF648/IL6R-L = 100)
relative binding activity [7]: 267 relative (IL6R-BF648/IL6R-L = 100)
relative binding activity [8]: 153 relative (IL6R-BF648/IL6R-L = 100)
relative binding activity [9]: 186 relative (IL6R-BF648/IL6R-L = 100)
